Laboratory results reported in the supplement of paper PMC9170038.

System: MS2 coat protein
Assay: apparent KD of MS2 coat protein; designed switch direction (-1 OFF switch, 1 ON switch): -1; higher = weaker reporter binding
Outline: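 The buffer was Tris-HCl pH 7.5 with KCl, MgCl2, BSA, DTT, tRNA and Tween-20. In it, SNAP-549-labelled MS2 coat protein was titrated in doubling steps from 0.7 or 1.5 nM to 3 µM over chip-bound RNA switches transcribed by stalled E. coli RNA polymerase on Illumina chips. Apparent KD is the per-design median over clusters of curve fits to normalised fluorescence.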

[1] = Eterna round: R95, input ligand: FMN 200 uM
[2] = Eterna round: R95, input ligand: microRNA oligo, concentration not stated
[3] = Eterna round: R95, input ligand: none
[4] = input ligand: microRNA oligo, concentration not stated

UUUUACAGGCUUAGAUCCUACAUGAGGAUCACCCAUGUGGAGGCGUGUCGUGAGACAUGCCUCUAAGCUCGUCUUGU [JL TOV1 3.74] (Eterna round: R97, puzzle: Sensor, turn-off variant 1)
apparent KD of MS2 coat protein (input ligand: FMN 200 uM): 86.2 nM | apparent KD of MS2 coat protein (input ligand: none): 103 nM

AUAUUGUGAGGAUAUGAACUUAGUUUCGAAAGAUACUAAGUUCAGAAGGCACAUGAGGAUCACCCAUGUUUCUC [Long static hairpin v21] (Eterna round: R97, puzzle: Exclusion 4)
apparent KD of MS2 coat protein (input ligand: FMN 200 uM): 597 nM | apparent KD of MS2 coat protein (input ligand: none): 79.8 nM

GUGUUGCGAGGAUAUAUAAGGGUAUGUUCUUAGGAUAUGGAACAUGAGGAUCACCCAUGUAGAAGGUGCAUAAC [JR_Ex2_Sub046] (Eterna round: R97, puzzle: Exclusion 2)
apparent KD of MS2 coat protein (input ligand: FMN 200 uM): 459 nM | apparent KD of MS2 coat protein (input ligand: none): 761 nM

AGUACUAACACGAUAGUGUUAGUACUAUAAGCUUGUGUUACAUGAGGAUCACCCAUGUCCUCAUAAGCUCGUCUUGA [Mat - Sensor v3 - Turn-off var 2 - D92] (puzzle: Sensor v3, turn-off variant 2)
apparent KD of MS2 coat protein [1]: 33.3 nM | apparent KD of MS2 coat protein [2]: 467 nM | apparent KD of MS2 coat protein [3]: 40.6 nM

CACCGUUACAGAGGAUAUGGUACAUGAGGAUCACCCAUGUAAUAAAUGAGAAUUUCGGAUGUAUUCCAGAAGGCUGAAAUCGGC [Ostricism 64 - Jieux - Exclusion NG 2] (Eterna round: R96, puzzle: Exclusion NG 2)
apparent KD of MS2 coat protein (input ligand: FMN 200 uM): 50.2 nM | apparent KD of MS2 coat protein [4]: 30.2 nM | apparent KD of MS2 coat protein (input ligand: none): 46.8 nM

ACAAGCUUUGAGUUCGUCUUAUACACUCCUAAUAAGAAAACAUGAGGAUCACCCAUGUAAGAAAUAAGAACUCAUGU [Sesor Array 3 - Jieux - Sensor v3, turn-off variant 2] (puzzle: Sensor v3, turn-off variant 2)
apparent KD of MS2 coat protein [1]: 25.5 nM | apparent KD of MS2 coat protein [2]: 291 nM | apparent KD of MS2 coat protein [3]: 27.8 nM

AAGAAACAUGAGGAUCACCCAUGUGAGGAUAUGAAAAAGAAAAGAAAAGAAAGAAGAAUCAGAAGGCACAAAGC [salish99-ex1_r3_090] (Eterna round: R96, puzzle: Exclusion 1)
apparent KD of MS2 coat protein (input ligand: FMN 200 uM): 24 nM | apparent KD of MS2 coat protein [4]: 25.3 nM | apparent KD of MS2 coat protein (input ligand: none): 31.2 nM

AACUCACAUGAGGAUCACCCAUGUGAGGAUAUGAUACUAUGUACUUCGGUACAUAGUAUCAGAAGGCAUGUGGG [Ex1-3: 94] (puzzle: Exclusion 1)
apparent KD of MS2 coat protein [2]: 49.7 nM

AACUUCUGAGGAUAUACAUAGAUUUACAUGAGGAUCACCCAUGUUCCUCUAUGUAUAAAUGUAGAAGGCAGAAGAG [Mat - Exclusion 5 - JL Mod - D63] (Eterna round: R97, puzzle: Exclusion 5)
apparent KD of MS2 coat protein (input ligand: FMN 200 uM): 71.3 nM | apparent KD of MS2 coat protein (input ligand: none): 17.2 nM

UGUGCGUAUGUGAGGAUAUGCUGGUCCUUGGCUCGGCAGAAGGCACAUGAGGAUCACCCAUGUGGUGUCGUACC [salish99_Bmod_ex4_060] (puzzle: Brourd's mod of Exclusion 4)
apparent KD of MS2 coat protein [2]: 33.1 nM

AAUUUGCAAGCGAGAUCCCACAUGAGGAUCACCCAUGUGCUCGUCUUAUAAGGUACUGUGACGAUAGUCACGGUACC [Mat - Sensor, turn-off var - Eli Mod - D93] (Eterna round: R97, puzzle: Sensor, turn-off variant 1)
apparent KD of MS2 coat protein (input ligand: FMN 200 uM): 14.1 nM | apparent KD of MS2 coat protein (input ligand: none): 14.3 nM

UUUUAACAUGAGGAUCACCCAUGUGAGGAUAUCGAAAUUUAUAUUAAUAUUAAUUAUUCGAGAAGGCACAUUUU [JMF 29] (puzzle: Exclusion 1)
apparent KD of MS2 coat protein [2]: 114 nM

GCAUUGAGUGUGAGGAUAUGCUGGUCCUUGGAUCAGCAGAAGGCACAUGAGGAUCACCCAUGUGAAAACAAUGC [JL bmx4 3.12] (puzzle: Brourd's mod of Exclusion 4)
apparent KD of MS2 coat protein [1]: 125 nM | apparent KD of MS2 coat protein [2]: 19.2 nM | apparent KD of MS2 coat protein [3]: 20.3 nM

UGUGCGUCAGGAUAUUCUACUUAUUACAUGAGGAUCACCCAUGUGAAUGUACAAGGGUGUGAAGAAGGGACUUGUC [LRO-Excl5-05-mod A17d by Omei] (Eterna round: R97, puzzle: Exclusion 5)
apparent KD of MS2 coat protein (input ligand: FMN 200 uM): 194 nM | apparent KD of MS2 coat protein (input ligand: none): 798 nM

UGGGAACGAGGAUAUCGAUGGUGGAACAUGAGGAUCACCCAUGUAUGAGAUAGUGUAGUUCGAGAAGGCGUUAAGU [JR_E5_Sub053] (puzzle: Exclusion 5)
apparent KD of MS2 coat protein [2]: 54 nM

CGAUGUGGAGUGAGGAUAUCGUGUUCGAAAGAACGUGAGAAGGCACAUGAGGAUCACCCAUGUGAUUCACGUCG [Omei Ex4B A6] (Eterna round: R97, puzzle: Brourd's mod of Exclusion 4)
apparent KD of MS2 coat protein (input ligand: FMN 200 uM): 28 nM | apparent KD of MS2 coat protein (input ligand: none): 15.6 nM

UCUCAGAUAGGAUAUACGUUGGCGGUAGAUCGGGUUUAAAUACAUGAGGAUCACCCAUGUAGAAGGAUCGAGGG [EX2 C.8] (Eterna round: R97, puzzle: Exclusion 2)
apparent KD of MS2 coat protein (input ligand: FMN 200 uM): 94.4 nM | apparent KD of MS2 coat protein (input ligand: none): 104 nM

AGUUGGCGAGGAUAUACAUGAGGAUCACCCAUGUGAGAGAAUAAAGUGAGAAAGAAAAGUAGAAGGCGCUGACG [Mat - Exclusion 3 - Mod of Salish D50] (puzzle: Exclusion 3)
apparent KD of MS2 coat protein [1]: 82.8 nM | apparent KD of MS2 coat protein [2]: 62.7 nM | apparent KD of MS2 coat protein [3]: 41.4 nM

UUAUUAUAUGUAGGAUAUGCAUAUUAUUAUUAUGCAGAAGGACAUGAGGAUCACCCAUGUAUAUUAUUAUUAUAUAUUAUAUGU [Title] (Eterna round: R96, puzzle: Exclusion NG 1)
apparent KD of MS2 coat protein [4]: 33.8 nM

AUAAUUAAUCGAGGAUAUCAGCACGUUUAGUGCUGAGAAGGCGACAUGAGGAUCACCCAUGUGAUCAAUUAAUAUUAAUAUUAU [ENG1/11-C2] (Eterna round: R96, puzzle: Exclusion NG 1)
apparent KD of MS2 coat protein (input ligand: FMN 200 uM): 898 nM | apparent KD of MS2 coat protein [4]: 230 nM | apparent KD of MS2 coat protein (input ligand: none): 369 nM

ACGGACCGAGGAUAUGCAUGCAGGAUACCUGGGUCCAAUGGACAUGAGGAUCACCCAUGUAGAAGGCGGAAAUA [Arinisra] (Eterna round: R97, puzzle: Exclusion 2)
apparent KD of MS2 coat protein (input ligand: FMN 200 uM): 86.3 nM | apparent KD of MS2 coat protein (input ligand: none): 31.4 nM

UUGAUUGGUGUAGGAUAUGUAUGAGGAUCACCCAUUAAUAAAUUUUAACCACGAGGAUCACCCGUGUAGAAGGACAUUGGUUAU [pwkr exNG2 2xF5 1xFMN.21] (Eterna round: R96, puzzle: Exclusion NG 2)
apparent KD of MS2 coat protein (input ligand: FMN 200 uM): 51.9 nM | apparent KD of MS2 coat protein [4]: 37.8 nM | apparent KD of MS2 coat protein (input ligand: none): 59.3 nM

AGCGGAGAUGUCAGGAUAUCUCGCUCGGUGGGUUGAGAGAAGGGACAUGAGGAUCACCCAUGUCUGCAAUUGUC [Eternabot (Original) Solution 46] (Eterna round: R97, puzzle: Brourd's mod of Exclusion 4)
apparent KD of MS2 coat protein (input ligand: FMN 200 uM): 19.9 nM | apparent KD of MS2 coat protein (input ligand: none): 17.9 nM

CCUCUACAUGAGGAUCACCCAUGUCAGGAUAUGCGAAUUUCAUCAAAAGAUGAAAUUUGCAGAAGGGACUAAGC [Omei Ex1 A34] (Eterna round: R97, puzzle: Exclusion 1)
apparent KD of MS2 coat protein (input ligand: FMN 200 uM): 282 nM | apparent KD of MS2 coat protein (input ligand: none): 246 nM

UGUCAGAUGGUAGGAUAUCUAUAUCGAGUGACCCUUUCAUAACAUGAGGAUCACCCAUGUCGGUGGGAGAAGGGCCGUAUGGUG [salish99_ExNG02_R04_029] (Eterna round: R96, puzzle: Exclusion NG 2)
apparent KD of MS2 coat protein (input ligand: FMN 200 uM): 28.6 nM | apparent KD of MS2 coat protein [4]: 23.2 nM | apparent KD of MS2 coat protein (input ligand: none): 28.5 nM
